Settings: guinea pig, in vivo

**Q.** With “Bovine serum albumin (BSA): positive control group in the guinea pig anaphylaxis test” as the substance, how does the “Averaged weight (g), during excitation” value read?
**A.** 447.1 ± 41.4 g

**Q.** What about the “Averaged weight (g), sensitized upon the last injection” value of the same substance?
**A.** 380.6 ± 23.6 g

**Q.** What about the “Reaction level + (number of guinea pigs)” value of the same substance?
**A.** 0

**Q.** What about the “Reaction level ++ (number of guinea pigs)” value of the same substance?
**A.** 0

**Q.** What about the “Reaction level +++ (number of guinea pigs)” value of the same substance?
**A.** 3

**Q.** What about the “Reaction level ++++ (number of guinea pigs)” value of the same substance?
**A.** 0

**Q.** What about the “Reaction level − (number of guinea pigs)” value of the same substance?
**A.** 3

Source: patent US8445662B2, “Mycobacterium tuberculosis fusion protein and uses thereof” (The 309th Hospital, The People's Liberation Army, priority 2006, dated 2013)
